B1: UNC-49B GABA receptor subunit (UNC-49B.1 isoform) (receptor)
chain: QDEDSHINTQLLSSVLDRLTNRTTYDKRLRPRYGEKPVDVGITIHVSSISAVSEVDMDFTLDFYMRQTWQDPRLAFGSLDLGLSKEIDSLTVGVDYLDRLWKPDTFFPNEKKSFFHLATTHNSFLRIEGDGTVYTSQRLTVTATCPMDLKLFPMDSQHCKLEIESYGYETKDIDYYWGKKRTDLEITAVKFDTFQLPQFQPTLYFVNTTKAETSSGKYVRLALEVILVRNMGFYTMNIVIPSILIVTISWVSFWLNREASPARVGLGVTTVLTMTTLITTTNNSMPKVSYVKGLDVFLNFCFVMVFASLLEYAIVSYMNKRLVLRREKRRKAAEQQQRNEMPMFNASPKAANNNADLYFAGHNSSMNPLMEIPENCDCRTIPMMQHPRLVTDGAHTLWPAPFARPKKASKTCCQRWTPAKIDKLSRYGFPLSFSIFNIVYWLYMKYLSLNSSDKIQENDKWQQIH
B2: UNC-49C GABA receptor subunit (receptor)
chain: QDEDSHINTQLLSSVLDRLTNRTTYDKRLRPRYGEKPVDVGITIHVSSISAVSEVDMDFTLDFYMRQTWQDPRLAFGSLDLGLSKEIDSLTVGVDYLDRLWKPDTFFPNEKKSFFHLATTHNSFLRIEGDGTVYTSQRLTVTATCPMDLKLFPMDSQHCKLEIESYAYSTAEIEYKWCTSKEPNCSTAVKADANIELSSYKFTKICQKRTLASTSSGTYSRLRVSFIFDRDSGFYFLQIFFPASLVVVLSWISFWINRDSAPSRTLIGTMTVLTETHLMTGTNRRLPPVAYVKAVDVFLGFCYLLVILALIEYACVAYSKKKNEDRRRREKKTEHKPAPPTPDILHDVRLAECTCNAAPTSIIAVIKQSNRFCVSHSHIDIVSRAAFPLVFILFNTLFWLILLYKSKRLPYISEHEGDRCDAPDLH

Experiments:
[1] = molecular target: the molecule itself; assay: cell-based or functional assay
[2] = molecular target: B1; assay: cell-based or functional assay

B1
EC50 (µM) of GABA, two-electrode voltage clamp, Xenopus oocytes injected with UNC-49B.1 mRNA alone [1]: 43.7 µM

B2
EC50 (µM) of GABA, two-electrode voltage clamp, Xenopus oocytes co-injected with UNC-49B and UNC-49C RNA [2]: 108 µM

From patent publication US6406872
